Test results taken from patent publication WO2017204277A1.

Biological target: mature h(m)TGF-beta3 (mature form of human (mouse) TGF-beta3) (human (mouse); the filing says the mature forms are identical)
Test: cell-based or functional assay

suppression of TGF-beta3 physiological activity (Smad signal), SEAP activity of HEK-Blue TGFb cells, OD620nm: 100%
Substance: GC1008-hIgG1 (antibody)
